The target of this data set is GST-CaWRKYa (Capsicum annuum, UniProt Q1XD53 1-546). Put plainly: EMSA; 5 ug protein; EMSA: 4 C, 30 min, 5% native polyacrylamide gel in 0.5x TBE; 5 ug protein (0.5 ug in Fig. S5b); binding buffer, salt and pH not stated. (In general: Mobility shift assays separate free from complexed probe on a gel.)
Chain of GST-CaWRKYa (Q1XD53 entry or part of it): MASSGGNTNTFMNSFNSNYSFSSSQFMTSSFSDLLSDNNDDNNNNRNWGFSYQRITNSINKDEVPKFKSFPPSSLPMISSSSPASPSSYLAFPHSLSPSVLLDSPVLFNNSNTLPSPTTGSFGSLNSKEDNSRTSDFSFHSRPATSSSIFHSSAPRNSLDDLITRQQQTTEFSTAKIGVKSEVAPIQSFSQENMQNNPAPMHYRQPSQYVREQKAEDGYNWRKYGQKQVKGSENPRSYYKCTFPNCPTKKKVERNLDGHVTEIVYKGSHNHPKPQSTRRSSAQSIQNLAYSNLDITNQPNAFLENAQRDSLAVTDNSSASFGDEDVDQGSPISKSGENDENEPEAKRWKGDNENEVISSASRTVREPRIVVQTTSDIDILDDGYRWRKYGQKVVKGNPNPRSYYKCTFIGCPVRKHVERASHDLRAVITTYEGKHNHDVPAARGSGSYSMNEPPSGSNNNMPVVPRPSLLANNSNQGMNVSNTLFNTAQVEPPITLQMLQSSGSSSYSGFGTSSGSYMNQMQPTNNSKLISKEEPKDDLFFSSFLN

B1: mW-box probe (dsDNA)
DNA 1: CGTAGACGGTAGACGGAGTAGACGTTTTA
DNA 2: TAAAACGTCTACTCCGTCTACCGTCTACG
For B1, the binding result is on record as “no binding”.

B2: W-box probe (dsDNA)
DNA 1: CGTTGACCGTTGACCGAGTTGACTTTTTA
DNA 2: TAAAAAGTCAACTCGGTCAACGGTCAACG
For the molecule B2, the binding result was “binds”.

For the origin of these results see paper PMC5379037.
